In assay [1] the target is T1, purified recombinant His tagged human PD-1 (human, UniProt Q15116 25-170).
T1 construct: not shown: His tag
As to the kind of experiment: SPR KD; fold improvement over parent mAb25.

Assay [2] addresses T2, human PD-1 expressed on cells (human, UniProt Q15116 25-288).
T2 construct: also called huPD-1; CHO cells expressing human PD-1
As to the kind of experiment: cell binding EC50 on CHO-human PD-1; fold improvement over parent mAb25.

Assay [3] has as its target T3, cyno PD-1 expressed on cells (cynomolgus).
T3 construct: whole, on cells; also called cyPD-1; cynomolgus PD-1
The experiment in a line: cell binding EC50 on CHO-cyno PD-1; fold improvement over parent mAb25.

For assay [4], the target named is T1, purified recombinant His tagged human …. The experiment in a line: SPR (Carterra MX96), antibody on chip, His-tagged human PD-1 injected.
Assay [5] deals with T2, human PD-1 expressed on cells. As to the kind of experiment: cell binding titration, CHO cells expressing human PD-1.
Assay [6] concerns the target T4, murine PD-1 expressed on cells (murine, UniProt Q02242 25-288).
T4 construct: whole, on cells; also called muPD-1; mouse PD-1
T4 sequence (looked up): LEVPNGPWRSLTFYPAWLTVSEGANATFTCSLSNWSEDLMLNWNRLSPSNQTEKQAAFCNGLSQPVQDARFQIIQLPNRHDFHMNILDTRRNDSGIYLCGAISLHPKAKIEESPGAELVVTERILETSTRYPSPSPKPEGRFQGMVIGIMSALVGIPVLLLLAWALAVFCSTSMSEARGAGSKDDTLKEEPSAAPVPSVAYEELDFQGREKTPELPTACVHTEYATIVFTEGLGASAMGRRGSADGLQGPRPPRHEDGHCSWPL
As to the kind of experiment: cell binding titration, CHO cells expressing murine PD-1.

Assay [7] concerns the target T3, cyno PD-1 expressed on cells. As to the kind of experiment: cell binding titration, CHO cells expressing cyno PD-1.
For assay [8], the target named is T5, cyno PD-L1 expressed on cells (cynomolgus).
T5 construct: whole, on cells; also called cynomolgus PD-L1
As to the kind of experiment: cell binding titration, HEK cells expressing cyno PD-L1.

Assay [9] addresses T5, cyno PD-L1 expressed on cells. The experiment in a line: cell binding EC50 on HEK-cyno PD-L1; fold improvement, reference taken as parent mAb24.
In assay [10] the target is T6, murine PD-L1 expressed on cells (murine, UniProt Q9EP73 19-290).
T6 construct: whole, on cells; also called muPDL1; mouse PD-L1
As to the kind of experiment: cell binding titration, A20 cells expressing murine PD-L1.

For assay [11], the target named is T7, purified recombinant His tagged human PD-L1 (human, UniProt Q9NZQ7 19-238).
T7 construct: not shown: His tag
As to the kind of experiment: SPR (Carterra MX96), antibody on chip, His-tagged human PD-L1 injected.

Assay [12] has as its target T7, purified recombinant His tagged human …. As to the kind of experiment: SPR KD; fold improvement, reference taken as parent mAb24.
For assay [13], the target named is T8, human PD-L1 expressed on cells (human, UniProt Q9NZQ7 19-290).
T8 construct: also called huPDL1; human PD-L1 on HEK cells
The experiment in a line: cell binding titration, HEK cells expressing human PD-L1.

For assay [14], the target named is T8, human PD-L1 expressed on cells. As to the kind of experiment: cell binding EC50 on HEK-human PD-L1; fold improvement, reference taken as parent mAb24.
For assay [15], the target named is T6, murine PD-L1 expressed on cells. As to the kind of experiment: cell binding EC50 on A20-murine PD-L1; fold improvement, reference taken as parent mAb24.

T2 sequence (Q15116 25-288 limits assumed): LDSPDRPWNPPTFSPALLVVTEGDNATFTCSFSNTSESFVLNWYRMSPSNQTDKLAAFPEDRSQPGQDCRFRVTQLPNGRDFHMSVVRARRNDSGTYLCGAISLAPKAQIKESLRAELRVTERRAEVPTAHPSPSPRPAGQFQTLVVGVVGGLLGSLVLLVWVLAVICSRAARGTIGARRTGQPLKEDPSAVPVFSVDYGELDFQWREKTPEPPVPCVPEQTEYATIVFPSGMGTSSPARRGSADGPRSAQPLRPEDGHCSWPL
T7 sequence (Q9NZQ7 19-238 limits assumed): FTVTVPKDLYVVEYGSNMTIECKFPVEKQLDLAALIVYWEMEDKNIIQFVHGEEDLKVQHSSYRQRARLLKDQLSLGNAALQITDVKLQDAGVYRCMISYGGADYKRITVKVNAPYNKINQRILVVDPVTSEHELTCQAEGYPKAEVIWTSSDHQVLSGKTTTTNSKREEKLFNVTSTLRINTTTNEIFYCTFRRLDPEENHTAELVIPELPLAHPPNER
T1 sequence (Q15116 25-170 limits assumed): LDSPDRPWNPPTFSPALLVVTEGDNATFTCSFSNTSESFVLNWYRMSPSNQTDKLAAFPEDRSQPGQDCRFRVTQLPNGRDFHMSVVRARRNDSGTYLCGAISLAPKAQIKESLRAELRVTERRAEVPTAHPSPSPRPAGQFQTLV
T8 sequence (Q9NZQ7 19-290 limits assumed): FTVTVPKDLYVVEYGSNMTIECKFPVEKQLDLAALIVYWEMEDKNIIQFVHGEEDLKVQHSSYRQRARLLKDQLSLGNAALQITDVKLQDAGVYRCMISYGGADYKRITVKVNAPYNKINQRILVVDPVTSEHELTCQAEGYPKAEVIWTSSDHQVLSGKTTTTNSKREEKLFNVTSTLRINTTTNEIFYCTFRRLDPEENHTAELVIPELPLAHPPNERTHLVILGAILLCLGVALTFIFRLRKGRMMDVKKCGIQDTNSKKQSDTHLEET
T6 sequence (Q9EP73 19-290): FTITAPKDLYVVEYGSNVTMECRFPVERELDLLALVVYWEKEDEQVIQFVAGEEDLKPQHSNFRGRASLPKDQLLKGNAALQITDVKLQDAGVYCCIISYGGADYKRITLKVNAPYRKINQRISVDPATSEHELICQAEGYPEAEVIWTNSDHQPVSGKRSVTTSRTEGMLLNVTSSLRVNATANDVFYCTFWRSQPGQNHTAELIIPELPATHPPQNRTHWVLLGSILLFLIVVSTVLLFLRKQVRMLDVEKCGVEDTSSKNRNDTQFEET

B1: mAb31 (antibody, V domains shown)
VH: EVQLLESGGGLVQPGGSLRLSCAASGFTFRSYAMSWVRQAPGKGLEWVSAISNSGTYTYYADSVKGRFTISRDNSKNTLYLQMNSLRAEDTAVYYCARGLDFIVGYTGNDYWGQGTLVTVSS
VL: not shown
With B1, the “Fold improvement over Parent” value was 44 fold in assay [1], 0.5 fold in assay [2] and 4.5 fold in assay [3]. Also, the Kd in assay [4] stood at 5.5 nM. The EC50 came out at 1.71 nM in assay [5], 1.87 nM in [6] and 1.9 nM in assay [7].

B2: mAb37 (antibody, V domains shown)
VH: EVQLLESGGGLVQPGGSLRLSCAASGFTFRSYAMSWVRQAPGKGLEWVSAISNSGTYTYYADSVKGRFTISRDNSKNTLYLQMNSLRAEDTAVYYCARGLDFIVGRTGNDYWGQGTLVTVSS
VL: not shown
For the molecule B2, the “Fold improvement over Parent” value stood at 17 fold in [1], 1.2 fold in [2] and 7.9 fold in assay [3]. In addition, in assay [4], the Kd amounted to 14 nM. Besides, the figures for the EC50 in [5], in [6] and in assay [7] were 0.75 nM, 0.942 nM and 1.09 nM, respectively.

B3: mAb33 (antibody, V domains shown)
VH: EVQLLESGGGLVQPGGSLRLSCAASGFTFNSYAMSWVRQAPGKGLEWVSAISNSGTYTYYADSVKGRFTISRDNSKNTLYLQMNSLRAEDTAVYYCARGLDFIVGYTGNDYWGQGTLVTVSS
VL: not shown
As to B3, the results for the “Fold improvement over Parent” value in [1], in [2] and in [3] were 34 fold, 0.9 fold and 6.5 fold, respectively. In addition, the Kd in [4] is 7 nM. The values for the concentration giving a half-maximal response (EC50) in assay [5], in assay [6] and in assay [7] were 1.04 nM, 10.4 nM and 1.33 nM, respectively.

B4: mAb34 (antibody, V domains shown)
VH: EVQLLESGGGLVQPGGSLRLSCAASGFTFSNYAMSWVRQAPGKGLEWVSAISNSGTYTYYADSVKGRFTISRDNSKNTLYLQMNSLRAEDTAVYYCARGLDFIVGATGNDYWGQGTLVTVSS
VL: not shown
Regarding B4, the “Fold improvement over Parent” value in assay [1] was found to be 33 fold; in [2] it was 0.2 fold; in [3], 6.5 fold. In addition, the Kd in assay [4] stood at 7.2 nM. Further, the concentration for a half-maximal effect (EC50) is 3.87 nM in assay [5], 20.5 nM in assay [6] and 1.33 nM in assay [7].

B5: mAb32 (antibody, V domains shown)
VH: EVQLLESGGGLVQPGGSLRLSCAASGFTFGRYAMSWVRQAPGKGLEWVSAISNSGTYTYYADSVKGRFTISRDNSKNTLYLQMNSLRAEDTAVYYCARGLDFIVGYTGNDYWGQGTLVTVSS
VL: not shown
Consider B5, for which the “Fold improvement over Parent” value stood at 114 fold in assay [1], 0.6 fold in assay [2] and 6.7 fold in assay [3]. Further, the Kd in [4] was 2.1 nM. Further, the values for the EC50 in [5], in assay [6] and in assay [7] were 1.51 nM, 2.8 nM and 1.29 nM, respectively.

B6: mAb8 (antibody, V domains shown)
VH: QVQLVQSGAEVKKPGSSVKVSCKASGGTFSSYAINWVRQAPGQGLEWMGGIIPVFGTATYAQKFQGRVTITADESTSTAYMELSSLRSEDTAVYYCARLKFELKDAFDIWGQGTLVTVSS
VL: not shown
Molecule B6 displayed an EC50 in [8] of 0.08 nM. Besides, the “Fold Improvement” value in [9] came to 3.42 fold; in assay [12] it was 1.2 fold. The binding result in assay [10] is reported as “no binding”. The Kd in assay [11] was 3.7 nM.

B7: mAb10 (antibody, V domains shown)
VH: QVQLVQSGAEVKKPGSSVKVSCKASGGTFSSYAINWVRQAPGQGLEWMGGIIPVFGTATYAQKFQGRVTITADESTSTAYMELSSLRSEDTAVYYCARLKNELKDAFDIWGQGTLVTVSS
VL: not shown
Turning to B7, the EC50 was determined as 0.09 nM in [8] and 0.04 nM in [13]. Further, the “Fold Improvement” value in assay [9] is 3.05 fold; in [14], 3.2 fold; in [12], 0.7 fold. The binding result in assay [10] is “no binding”. Besides, the Kd in assay [11] came out at 6.3 nM.

B8: mAb3 (antibody, V domains shown)
VH: QVQLVQSGAEVKKPGSSVKVSCKASGGTFSSYAINWVRQAPGQGLEWMGGIIPVFGTATYAQKFQGRVTITADESTSTAYMELSSLRSEDTAVYYCARLKGELKDAFDIWGQGTMVTVSS
VL: not shown
Take B8: the results for the EC50 in assay [13] and in [10] were 0.11 nM and 1.27 nM, respectively. The entries for the “Fold Improvement” value in assay [14], in [15] and in [12] were 1.3 fold, 3.08 fold and 4.8 fold, respectively. In addition, the Kd in [11] came to 0.9 nM.

B9: mAb22 (antibody, V domains shown)
VH: QVQLVQSGAEVKKPGSSVKVSCKASGGTFSSYAINWVRQAPGQGLEWMGGIIPVFGTATYAQKFQGRVTITADESTSTAYMELSSLRSEDTAVYYCARLKGELKDAFDIWGQGTMVTVSS
VL: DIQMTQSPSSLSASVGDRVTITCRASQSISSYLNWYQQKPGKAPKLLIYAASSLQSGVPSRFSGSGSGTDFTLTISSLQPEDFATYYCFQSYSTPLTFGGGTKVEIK
Consider B9, for which the EC50 in assay [8] turned out to be 0.32 nM; in assay [13], 0.18 nM. The “Fold Improvement” value in assay [9] came to 0.89 fold; in assay [14], 0.8 fold; in assay [12], 1.8 fold. Further, the binding result in assay [10] is “no binding”. Moreover, in assay [11], the Kd amounted to 2.5 nM.

B10: mAb5 (antibody, V domains shown)
VH: QVQLVQSGAEVKKPGSSVKVSCKASGGTFSSYAFSWVRQAPGQGLEWMGGIIPVFGTATYAQKFQGRVTITADESTSTAYMELSSLRSEDTAVYYCARLKGELKDAFDIWGQGTLVTVSS
VL: not shown
Turning to B10, the EC50 was 0.39 nM in assay [8] and 0.09 nM in assay [13]. The “Fold Improvement” value in assay [9] was determined as 0.74 fold; in [14] it was 1.5 fold; in assay [12], 0.2 fold. Also, the binding result in assay [10] is recorded as “no binding”. In addition, in assay [11], the Kd amounted to 27.1 nM.

B11: mAb9 (antibody, V domains shown)
VH: QVQLVQSGAEVKKPGSSVKVSCKASGGTFSSYAINWVRQAPGQGLEWMGGIIPVFGTATYAQKFQGRVTITADESTSTAYMELSSLRSEDTAVYYCARLKGELKDAFDEWGQGTLVTVSS
VL: not shown
As to B11, the EC50 in assay [8] is 0.07 nM; in assay [13] it was 0.06 nM. The “Fold Improvement” value was 4.15 fold in assay [9], 2.5 fold in [14] and 0.8 fold in assay [12]. For the same molecule, in assay [10], the binding result is on record as “no binding”. The Kd in assay [11] stood at 5.4 nM.

B12: mAb18 (antibody, V domains shown)
VH: QVQLVQSGAEVKKPGSSVKVSCKASGGTFSSYAINWVRQAPGQGLEWMGGIIPILGTATYAQKFQGRVTITADESTSTAYMELSSLRSEDTAVYYCARRKGELKDAFDIWGQGTLVTVSS
VL: not shown
Consider B12, for which the values for the EC50 in [8], in [13] and in assay [10] were 0.06 nM, 0.38 nM and 0.84 nM, respectively. Besides, the “Fold Improvement” value worked out at 4.96 fold in [9], 0.4 fold in assay [14] and 4.67 fold in assay [15]. The Kd in assay [11] is 527 nM.

B13: mAb2 (antibody, V domains shown)
VH: QVQLVQSGAEVKKPGSSVKVSCKASGGTFSSYAINWVRQAPGQGLEWMGGIIPVFGTATYAQKFQGRVTITADESTSTAYMELSSLRSEDTAVYYCARLKGELKDAFDIWGQGTMVTVSS
VL: not shown
For B13, the EC50 came to 0.08 nM in assay [8], 0.06 nM in assay [13] and 2 nM in assay [10]. Besides, the “Fold Improvement” value in assay [9] was found to be 3.76 fold; in assay [14], 2.2 fold; in assay [15] it was 1.96 fold; in [12] it was 2 fold. The Kd in assay [11] amounted to 2.2 nM.

B14: mAb6 (antibody, V domains shown)
VH: QVQLVQSGAEVKKPGSSVKVSCKASGGTFSSYAINWVRQAPGQGLEWMGGIIPIFGIANYAQKFQGRVTITADESTSTAYMELSSLRSEDTAVYYCARLKGELKDAFDIWGQGTLVTVSS
VL: not shown
Turning to B14, the EC50 amounted to 0.47 nM in [8] and 0.13 nM in assay [13]. In addition, the “Fold Improvement” value in [9] was 0.61 fold; in assay [14], 1.1 fold; in assay [12] it was 0.1 fold. The binding result in assay [10] is given as “no binding”. Also, the equilibrium dissociation constant (Kd) in assay [11] was determined as 35.9 nM.

The values are drawn from patent US12503511 (COMPASS THERAPEUTICS, dated 2025).
